The record followed here is patent US20210221899A1 (published 2021).

The chains are these.
T1: human NGF (human, UniProt P01138 122-241)
T1 construct: also called human Nerve Growth Factor; hN
T1 chain: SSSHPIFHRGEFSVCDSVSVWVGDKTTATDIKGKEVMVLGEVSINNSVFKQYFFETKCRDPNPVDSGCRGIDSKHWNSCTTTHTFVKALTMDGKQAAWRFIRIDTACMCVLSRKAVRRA

T2: canine NGF (canine, UniProt Q29074 110-229 (pig entry), limits assumed)
T2 construct: The protein was secreted from CHO cells and purified; also called cNGF; canine β-NGF
T2 chain: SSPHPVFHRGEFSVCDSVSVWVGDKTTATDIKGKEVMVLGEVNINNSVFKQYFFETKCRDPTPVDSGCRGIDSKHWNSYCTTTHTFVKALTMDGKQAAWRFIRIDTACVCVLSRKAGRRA

B1: can48L2VH_S57A (antibody, V domains shown)
VH: EVQLVESGGDLVKPGGSLRLSCVASGFTFSTYGINWVRQAPGKGLQWVAYISSGGSATYYADPVKGRFTISRDDAKNMLYLQMNSLRAEDTAIYYCAGSRYTYAYGGGYEFHFWGQGTLVTVSS
VL: QAVLNQPASVSGALGQKVTISCSGSTMDIDIFGVSWYQQLPGKAPKLLVDSDGDRPSGIPDRFSGSRSGNSGTLTITGLQAEDEADYHCQSGDSTLGALAIFGGGTHVTVL
notes: CDR scanning mutant of ZTS-842 (48L2)
B2: can48L2VL_A98L (antibody, V domains shown)
VH: B1 VH with A57S
VL: B1 VL with A98L
notes: as for B1
B3: can48L2VL_D52A (antibody, V domains shown)
VH: B1 VH with A57S
VL: B1 VL with D52A
notes: as for B1
B4: can48L2VL_G33A (antibody, V domains shown)
VH: B1 VH with A57S
VL: B1 VL with G33A
notes: as for B1
B5: can48L2VL_D30A (antibody, V domains shown)
VH: B1 VH with A57S
VL: B1 VL with D30A
notes: as for B1
B6: can48L2VL_D93A (antibody, V domains shown)
VH: B1 VH with A57S
VL: B1 VL with D93A
notes: as for B1
B7: can48L2VL_F32A (antibody, V domains shown)
VH: B1 VH with A57S
VL: B1 VL with F32A
notes: as for B1
B8: can48L2VH_T58A (antibody, V domains shown)
VH: B1 VH with A57S, T58A
VL: B1 VL
notes: as for B1
B9: can48L2VL_A100L (antibody, V domains shown)
VH: B1 VH with A57S
VL: B1 VL with A100L
notes: as for B1
B10: can48L2VH_T31A (antibody, V domains shown)
VH: B1 VH with T31A, A57S
VL: B1 VL
notes: as for B1
B11: can48L2VL_D28A (antibody, V domains shown)
VH: B1 VH with A57S
VL: B1 VL with D28A
notes: as for B1

Substitutions are numbered along the chain they refer to.

T3 sequence (P25427 122-241 limits assumed): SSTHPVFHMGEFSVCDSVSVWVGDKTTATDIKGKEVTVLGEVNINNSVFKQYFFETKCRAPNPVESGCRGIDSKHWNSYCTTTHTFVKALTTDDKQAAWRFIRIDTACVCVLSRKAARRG

The first assay concerns the target T1, human NGF. Description: SPR (Biacore T200), 100 nM mAb on NGF chip, similarity to parent mAb. Put shortly: (§1)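 For each alanine substitution in heavy- or light-chain CDRs, binding to an NGF chip was measured by SPR (Biacore T200) with 100 nM antibody. The "% similarity score" is the fraction of the mutant's sensorgram points within the parent mAb's mean ±3 SD response-unit window, taken from four replicates.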
In general terms: Surface plasmon resonance follows binding to a sensor surface in real time, without labels.
Turning to B1, the “Percent Similarity Score (KD on hN)” value amounted to 100%.
Take B2: the “Percent Similarity Score (KD on hN)” value came to 99.8%.
On the same count and under the same terms, to B3 belongs 100%.
As for B4, the “Percent Similarity Score (KD on hN)” value worked out at 56.6%.
The same measure, in the same setting: to B5 belongs 99.7%; to B6, 99.9%; to B7, 44.3%.
Same read-out and setting: next, B8: 99.9%; B9: 99.9%.
Turning to B10, the “Percent Similarity Score (KD on hN)” value is 99.9%.
Same read-out and setting: next, B11: 99.6%.

A further assay has as its target T3, rat NGF (rat, UniProt P25427 122-241).
T3 construct: also called rN
The description is as above. Put shortly: as §1
B1: the “Percent Similarity Score (KD on rN)” value was found to be 99.7%.
Take B2: the “Percent Similarity Score (KD on rN)” value came out at 98.4%.
On the same count and under the same terms, next, B3: 99.9%.
Same read-out and setting: next, B4: 21.2%.
Still for that read-out and setting: to B5 belongs 98.7%; to B6, 99.5%; to B7, 66%.
Take B8: the “Percent Similarity Score (KD on rN)” value was determined as 99.7%.
The same measure, in the same setting: next, B9: 98.3%.
On the same count and under the same terms, next, B10: 99.9%; B11: 97.7%.

The target in the next assay is T2, canine NGF. The assay is described as above. Put shortly:
as §1
Turning to B1, the “Percent Similarity Score (KD on cN)” value worked out at 98.4%.
Take B2: the “Percent Similarity Score (KD on cN)” value was 97.3%.
The same measure, in the same setting: next, B3: 99.7%.
In the case of B4, the “Percent Similarity Score (KD on cN)” value was 17.5%.
Same read-out and setting: next, B5: 98.3%.
On to B6, for which the “Percent Similarity Score (KD on cN)” value was 98.7%.
On the same count and under the same terms, to B7 belongs 19.6%.
The same measure, in the same setting: to B8 belongs 99.1%; to B9, 97.8%.
On the same count and under the same terms, next, B10: 99.6%; B11: 97%.
